Assay results published in the RNAGym collection of RNA variant scans (doi:10.1073/pnas.2313332121).
Fewer inactive variants are shown than the library holds.

B1: TPR 5TU (parent)
chain: GGAUCUUCUCGAUCUAACAAAAAAGACAAAUCUGCCACAAAGCUUGAGAGCAUCUUCGGAUGCAGAGGCGGCAGCCUUCGGUGGCGCGAUAGCGCCAACGUUCUCAACUAUGACACGCAAAACGCGUGCUCCGUUGAAUGGAGUUUAUCAUG

Variants of: B1
Assay: polymerase ribozyme fitness, log enrichment relative to wild type (log ratio); higher = more active; in vitro selection for triplet polymerase activity
How it was run: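 For each subunit of a heterodimeric triplet polymerase ribozyme, a mutant library was built by PCR and transcribed, then taken through a single in vitro selection round in triplicate. Selection involved annealing to a biotinylated primer, the partner subunit and triplets, incubation frozen at −7 °C, gel excision of extended constructs, capture on streptavidin beads and RT-PCR. Genotypes were retained after Illumina sequencing of inputs and outputs only with ≥10 input reads and ≥1 read in each output. Fitness is defined as the logarithm of a genotype's enrichment relative to wild-type enrichment, using inverse-variance-weighted averages across replicates, with the logarithm taken to base 2.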

Variant	polymerase ribozyme fitness (log ratio)
A12U A22G C35U G58A A91C A98G C116G	-4.07
C93U G140A	-3.82
G42A G62A G65U G136U	≤ -4.2
G86C C93G C105U	0.694
U45C	0.188
C18G A20C U56G G94A	-1.51
U44A G50A G65C C76G U90G	≤ -4.2
G46A C54G	-1.88
U77C C114U	≤ -4.2
A30G C32G C85G U90C C93G U111G A113U	≤ -4.2
C57A G92C	-0.41
A49G G92C	-2.39
C69A U78G U90G G128A C131U	≤ -4.2
A37C G84U	-2.07
A37G G58U A89G	-2.84
A3C A23U G50C U55A C105U C116U C125U	≤ -4.2
C5G G84A A147C	-0.43
C10U A20U U44A C79U C87A	≤ -4.2
A19U A20U A24G G42C U55A C57A U78C G86U A119U	≤ -4.2
A41U A89G U90C G94A A121C	≤ -4.2
C43U C69U A91C A137C	≤ -4.2
A23U A24U U56A A106C A150U	-3.89
U127A U144C	-3.74
C27U A30U U55A G65U U102C A110G U111G C131A U134A	≤ -4.2

Variant	polymerase ribozyme fitness (log ratio)
U53A C85A A89C	-3.89
G25A A29C A40U G68C C93A A97U	≤ -4.2
A73G A122C	0.468
G58C G59A U102G A121U U127C	-3.85
A22U U53C G92U	-0.0274
U53A G59U	0.71
U4G A37C G50U G59U G86U	-3.71
C14A A49C C69A	≤ -4.2
U31A C85U U101A A150U	-1.46
U33C C87A	-3.95
G42C G48U U61A A110U	≤ -4.2
U13G A60U G83C C108U	≤ -4.2
C76G G80U U82A G86U U104C G141C	≤ -4.2
A52C U53A C85U A107U A119C C125U	≤ -4.2
A19C U61G C93A	-4.05
C14G G50U C87A G112C C123U U148G	≤ -4.2
A21C A22U U53A C85A G124A	-2.42
A113C G128A	-4.02
A52C A119U G141C	-2.95
C8A U15G G59C C114U A138G	≤ -4.2
U55A C93U A150C	-4.02
U7A G42U C76G C96G C99A U144A C149G	≤ -4.2
U31A C93A C129U	-2.44
C76U G86C	-0.716

Variant	polymerase ribozyme fitness (log ratio)
C35U G50A U53A U56A C85A C93A C95U	≤ -4.2
A3U C35U U77C G84C A89G C118U	≤ -4.2
U56A A89C	-0.735
C5G A52C C76G G81A A91U	≤ -4.2
A47C A60G A107U	-3.3
A23C G50U C76U C79A C85U C99G	≤ -4.2
C72G U146G	≤ -4.2
A23U C63A C114G	≤ -4.2
C85G A98G	-0.929
U55A G128U	-3.12
C14U U15C A23U A41U C85A G124U	≤ -4.2
U53G A150U	-1.34
C14U U45G A47G G48C C69U C76G U109A	≤ -4.2
G25A G68U U78C A91G C114G	≤ -4.2
C8U U15G U44A C54U G84A U101G A110U A115G G133U	≤ -4.2
A21U U101C	0.366
A28U A41G G42C G94C	≤ -4.2
U4C U53A A121C U144C	-1.34
U55A C76G G92A A122G	≤ -4.2
A3G C57A C87A	≤ -4.2
C51U U55A C96A	-1.8
C57U C99G C105U	-1
A21C G94A U148A	-3.72
A47G U82A A89C C93U	-1.39

Variant	polymerase ribozyme fitness (log ratio)
A49C U82A C85U G88A G92U G133A G141U	≤ -4.2
A16G C85G G86U A89C A107G	≤ -4.2
A29C C43G U53A G62U A147C	≤ -4.2
C36A U55A C57G C76A	-4.03
A17U A23C A37C A41C C96A G124U	≤ -4.2
A37C C75U U77G A89C C93A A121C U148G U151G	≤ -4.2
A19U G25U C38G A52C C75U C118G C131A A142U	≤ -4.2
G42U	-3.47
A20U G62C C63U C95U A122G G143A	-4.12
U45C G50U C57G C87G A137C C149A	≤ -4.2
U45A A73U C79A C93U A121G	≤ -4.2
A21C U53A C69U C125U	-3.94
A47G U55A G71U C85G C95U	≤ -4.2
U102A A119C G141C	-2.4
C87G C93G	-3.76
A26C C87A	≤ -4.2
G124U G141U	0.513
U53A C87A A107C C108A U111G U146C U148A	≤ -4.2
C93U C103G	-3.63
C38U A41U C51U G84A G143A	-3.06
A37U A47G U53A G92C A106U A137G G141U	≤ -4.2
C32G G48A G67U C85U C93G U145G	≤ -4.2
C36G C54G A97G A98U C99U U104A C105G G117A G133C A150U	≤ -4.2
U53A A91G	-3.09

Variant	polymerase ribozyme fitness (log ratio)
A3U G58A U130A	-3.64
G11U	-0.242
C57U G92U	-0.682
U31C A41U G48C U55G A89U	-2.77
C43G A52U A142C U144A	≤ -4.2
A98G	-0.208
C43G A47C U104G	≤ -4.2
A12U A17U C18U G46U C51U A52U C75A G84C G100U C105U C118G A120U U134A A137G	≤ -4.2
U4A C8U A29C A41C G58A C75A C79U G83A	≤ -4.2
U82C C93G	-3.99
C38A C95G G124C	-1.34
A22U A52C U55A G67U	≤ -4.2
G58A G81A C123U U146G A147G	-0.0286
G59A C85A C95U C103U U134A	-3.2
C32A C54A U130A	≤ -4.2
A26U G88U C118G G143C	≤ -4.2
C5G G50A G59C C76A G83A C103G C114A	≤ -4.2
A16U G83C C129G A137C U145C	≤ -4.2
A20G A23C U53A G92A C93A C95U G141A	≤ -4.2
U55A G128C U146A	-4.09
U61G G124C	-3.25
A110C G140A	≤ -4.2
U9C C96U A110G	≤ -4.2
U61A C103U	-1.31

Variant	polymerase ribozyme fitness (log ratio)
G84A A142U	-0.702
C51U U56A A91G	-3.44
C38U C43U A73U C79A U90C U148G	≤ -4.2
A12U U56A C93U	-1.4
G88A G126A	-3.7
C87A A97G	≤ -4.2
A19G A91C	-4.15
C14G C57G C87G	≤ -4.2
C54A A91U C108U G124U A138C G141A	≤ -4.2
A21G U56A G67C U77G G88A C99A U109G	≤ -4.2
A12U G34U G50A A52G G67C C85U C96U G141A U148G	≤ -4.2
C85G G117A	-2.7
C36A U55A G92A C96G G126C U144C	≤ -4.2
A16G U56C C76A	-0.363
U55A G59A C116A	2.35
G59A U101A	0.287
U6G A16G A24C U145C	≤ -4.2
A37U G59A	-0.836
C96A U102A G143C	-4.16
A22U A91G	-3.05
A40C U61A	-1.94
G59A U77C	-3.69
G11U G50C A73G	≤ -4.2
C8G U31C C32G G48A A91U A122C G133A	≤ -4.2

Variant	polymerase ribozyme fitness (log ratio)
U31G C36U U53A G58C C69U G83U C118A U134A G143C G152U	≤ -4.2
G71C C87U	-3.34
U31C U148A	-2.56
U9C C57U G83A A119U G124C	≤ -4.2
G48A C85U C96A C116G	-2.37
U148G A150G	-3.79
A3U U135G	-4.19
G84A U139A	-4.11
U33A G46U A107G	-4.18
A73G U130C	0.842
G50U C87U A115U U144A	-3.8
A73U A115G	-2.08
C8A G136A	-3.96
A16U C85U	-2.1
C35U G86A	-1.37
C14U C35U G59C A60G C85U U104A A120U G128U A147G	≤ -4.2
A89G A119C	-1.39
U53A G92C A137G	-3.41
U53A U102G G133U U144G	≤ -4.2
A3U C96U	-0.0857
A39U C54U A60U C75G C79A U90A	≤ -4.2
A52G U55C C105G U109A	-1.97
G50C G83A C87U G141U	≤ -4.2
